Results as given in IntAct's records for PubMed 20048159.

B1: Ras-related protein Rab-9A (Homo sapiens), P51151 (parent)
chain: MAGKSSLFKVILLGDGGVGKSSLMNRYVTNKFDTQLFHTIGVEFLNKDLEVDGHFVTMQIWDTAGQERFRSLRTPFYRGSDCCLLTFSVDDSQSFQNLSNWKKEFIYYADVKEPESFPFVILGNKIDISERQVSTEEAQAWCRDNGDYPYFETSAKDATNVAAAFEEAVRRVLATEDRSDHLIQTDTVNLHRKPKPSSSCC
partner: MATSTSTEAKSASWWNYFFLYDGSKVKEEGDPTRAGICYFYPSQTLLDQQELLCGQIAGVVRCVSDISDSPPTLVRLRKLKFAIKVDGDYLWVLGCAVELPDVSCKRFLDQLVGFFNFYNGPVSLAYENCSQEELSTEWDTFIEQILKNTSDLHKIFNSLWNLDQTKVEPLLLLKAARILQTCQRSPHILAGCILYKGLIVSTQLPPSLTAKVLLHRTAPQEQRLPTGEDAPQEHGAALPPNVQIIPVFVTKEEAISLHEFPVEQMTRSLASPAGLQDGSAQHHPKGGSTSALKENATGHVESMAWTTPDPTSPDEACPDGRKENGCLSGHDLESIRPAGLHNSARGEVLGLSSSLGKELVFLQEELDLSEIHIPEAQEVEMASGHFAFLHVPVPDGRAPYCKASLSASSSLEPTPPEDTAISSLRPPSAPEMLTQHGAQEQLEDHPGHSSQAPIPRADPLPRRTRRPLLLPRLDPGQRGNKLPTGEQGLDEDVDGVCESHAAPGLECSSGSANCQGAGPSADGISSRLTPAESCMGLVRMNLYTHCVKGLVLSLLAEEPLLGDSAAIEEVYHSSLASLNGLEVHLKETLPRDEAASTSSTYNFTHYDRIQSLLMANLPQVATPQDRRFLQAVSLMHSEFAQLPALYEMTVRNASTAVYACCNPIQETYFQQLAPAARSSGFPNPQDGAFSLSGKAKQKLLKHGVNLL

Variants of: B1
Conditions: with hps4_human HPS4, Q9NQG7

Which “effect of a mutation on the interaction” value does the source give for Q35A;Q66L here?
The value was “with no effect”.

How did the “effect of a mutation on the interaction” value turn out when H38A;Q66L was run?
Its value is “with no effect”.

For Q66L, which “effect of a mutation on the interaction” value is on record?
Its value is “with no effect”.

F44A;Q66L was tested. Which “effect of a mutation on the interaction” value did it give?
Its value is “disrupting interaction strength”.

Q66L;L72A was tested. Which “effect of a mutation on the interaction” value did it give?
The value was “with no effect”.

How did the “effect of a mutation on the interaction” value turn out when W61A;Q66L was run?
Its value is “disrupting interaction strength”.

I40A;Q66L was tested. Which “effect of a mutation on the interaction” value did it give?
The value was “disrupting interaction strength”.

Which “effect of a mutation on the interaction” value does the source give for V42A;Q66L here?
Its value is “with no effect”.

How did the “effect of a mutation on the interaction” value turn out when Q66L;F76A was run?
Its value is “with no effect”.

With T34A;Q66L as the variant, how does the “effect of a mutation on the interaction” value read?
Its value is “with no effect”.
